Compound in data set [1]: CCN(CC)Cc1ccccc1CNC(=O)c1cc(C)cc(NC(=O)c2ccc(F)cc2)c1
Nature of the data set: Non competitive inhibition of human BChE assessed as Vmax at 0.12 nM using BTC as substrate by Lineweaver-Burk plot analysis.

Compound in data set [2]: CCN(CC)Cc1ccccc1CNC(=O)c1cc(C)cc(NC(=O)c2ccc(F)cc2)c1
Nature of the data set: Non competitive inhibition of human BChE assessed as Km at 0.1 nM using BTC as substrate by Lineweaver-Burk plot analysis.

Compound in data set [3]: CCN(CC)Cc1ccccc1CNC(=O)c1cc(C)cc(NC(=O)c2ccc(F)cc2)c1
Nature of the data set: Non competitive inhibition of human BChE assessed as Km at 0.12 nM using BTC as substrate by Lineweaver-Burk plot analysis.

Compound in data set [4]: CCN(CC)Cc1ccccc1CNC(=O)c1cccc(NC(=O)c2ccc(F)cc2)c1
Description: Mixed type inhibition of human BChE assessed as Vmax at 0.4 nM using BTC as substrate by Lineweaver-Burk plot analysis.

Compound in data set [5]: CCN(CC)Cc1ccccc1CNC(=O)c1cccc(NC(=O)c2ccc(F)cc2)c1
Nature of the data set: Mixed type inhibition of human BChE assessed as Vmax at 1.5 nM using BTC as substrate by Lineweaver-Burk plot analysis.

Compound in data set [6]: CCN(CC)Cc1ccccc1CNC(=O)c1cccc(NC(=O)c2ccc(F)cc2)c1
Description: Mixed type inhibition of human BChE assessed as Km at 0.2 nM using BTC as substrate by Lineweaver-Burk plot analysis.

Compound in data set [7]: CCN(CC)Cc1ccccc1CNC(=O)c1cc(C)cc(NC(=O)c2ccc(F)cc2)c1
Nature of the data set: Non competitive inhibition of human BChE assessed as Km at 0.02 nM using BTC as substrate by Lineweaver-Burk plot analysis.

Compound in data set [8]: CCN(CC)Cc1ccccc1CNC(=O)c1cccc(NC(=O)c2ccc(F)cc2)c1
Nature of the data set: Mixed type inhibition of human BChE assessed as Vmax at 0.2 nM using BTC as substrate by Lineweaver-Burk plot analysis.

Compound in data set [9]: CCN(CC)Cc1ccccc1CNC(=O)c1cccc(NC(=O)c2ccc(F)cc2)c1
Nature of the data set: Mixed type inhibition of human BChE assessed as Vmax at 0.8 nM using BTC as substrate by Lineweaver-Burk plot analysis.

Compound in data set [10]: CCN(CC)Cc1ccccc1CNC(=O)c1cccc(NC(=O)c2ccc(F)cc2)c1
Description: Mixed type inhibition of human BChE assessed as Km at 0.4 nM using BTC as substrate by Lineweaver-Burk plot analysis.

Compound in data set [11]: CCN(CC)Cc1ccccc1CNC(=O)c1cc(C)cc(NC(=O)c2ccc(F)cc2)c1
Nature of the data set: Non competitive inhibition of human BChE assessed as Vmax at 0.02 nM using BTC as substrate by Lineweaver-Burk plot analysis.

Compound in data set [12]: CCN(CC)Cc1ccccc1CNC(=O)c1cccc(NC(=O)c2ccc(F)cc2)c1
Description: Mixed type inhibition of human BChE assessed as Km at 1.5 nM using BTC as substrate by Lineweaver-Burk plot analysis.

Compound in data set [13]: CCN(CC)Cc1ccccc1CNC(=O)c1cc(C)cc(NC(=O)c2ccc(F)cc2)c1
Nature of the data set: Non competitive inhibition of human BChE assessed as Km at 0.15 nM using BTC as substrate by Lineweaver-Burk plot analysis.

Compound in data set [14]: CCN(CC)Cc1ccccc1CNC(=O)c1cc(C)cc(NC(=O)c2ccc(F)cc2)c1
Nature of the data set: Non competitive inhibition of human BChE assessed as Vmax at 0.1 nM using BTC as substrate by Lineweaver-Burk plot analysis.

Compound in data set [15]: CCN(CC)Cc1ccccc1CNC(=O)c1cccc(NC(=O)c2ccc(F)cc2)c1
Nature of the data set: Mixed type inhibition of human BChE assessed as Km at 1 nM using BTC as substrate by Lineweaver-Burk plot analysis.

Compound in data set [16]: CCN(CC)Cc1ccccc1CNC(=O)c1cccc(NC(=O)c2ccc(F)cc2)c1
Nature of the data set: Mixed type inhibition of human BChE assessed as Vmax at 1 nM using BTC as substrate by Lineweaver-Burk plot analysis.

Compound in data set [17]: CCN(CC)Cc1ccccc1CNC(=O)c1cc(C)cc(NC(=O)c2ccc(F)cc2)c1
Nature of the data set: Non competitive inhibition of human BChE assessed as Vmax at 0.15 nM using BTC as substrate by Lineweaver-Burk plot analysis.

Compound in data set [18]: CCN(CC)Cc1ccccc1CNC(=O)c1cccc(NC(=O)c2ccc(F)cc2)c1
Description: Mixed type inhibition of human BChE assessed as Km at 0.8 nM using BTC as substrate by Lineweaver-Burk plot analysis.

B1: Cholinesterase (Homo sapiens), P06276 (protein)
chain: MHSKVTIICIRFLFWFLLLCMLIGKSHTEDDIIIATKNGKVRGMNLTVFGGTVTAFLGIPYAQPPLGRLRFKKPQSLTKWSDIWNATKYANSCCQNIDQSFPGFHGSEMWNPNTDLSEDCLYLNVWIPAPKPKNATVLIWIYGGGFQTGTSSLHVYDGKFLARVERVIVVSMNYRVGALGFLALPGNPEAPGNMGLFDQQLALQWVQKNIAAFGGNPKSVTLFGESAGAASVSLHLLSPGSHSLFTRAILQSGSFNAPWAVTSLYEARNRTLNLAKLTGCSRENETEIIKCLRNKDPQEILLNEAFVVPYGTPLSVNFGPTVDGDFLTDMPDILLELGQFKKTQILVGVNKDEGTAFLVYGAPGFSKDNNSIITRKEFQEGLKIFFPGVSEFGKESILFHYTDWVDDQRPENYREALGDVVGDYNFICPALEFTKKFSEWGNNAFFYYFEHRSSKLPWPEWMGVMHGYEIEFVFGLPLERRDNYTKAEEILSRSIVKRWANFAKYGNPNETQNNSTSWPVFKSTEQKYLTLNTESTRIMTKLRAQQCRFWTSFFPKVLEMTGNIDEAEWEWKAGFHRWNNYMMDWKNQFNDYTSKKESCVGL
Turning to B1, the Vmax in data set [1] stood at 0.19 s⁻¹; in data set [4], 0.86 s⁻¹; in [5] it was 0.48 s⁻¹; in data set [8], 0.7 s⁻¹; in data set [9], 0.63 s⁻¹; in data set [11], 0.38 s⁻¹. For the same protein, the Vmax came to 0.24 s⁻¹ in data set [14], 0.61 s⁻¹ in [16] and 0.15 s⁻¹ in data set [17]. In addition, the Km in data set [2] is 204 s⁻¹; in data set [3] it was 201 s⁻¹; in data set [6], 511 s⁻¹; in data set [7], 205 s⁻¹; in data set [10], 558 s⁻¹; in data set [12] it was 707 s⁻¹. The Km in [13] was 201 s⁻¹; in [15], 684 s⁻¹; in data set [18], 621 s⁻¹.

(Values after ChEMBL document CHEMBL5137095, “N-Benzyl Benzamide Derivatives as Selective Sub-Nanomolar Butyrylcholinesterase Inhibitors for Possible Treatment in Advanced Alzheimer's Disease” (J Med Chem, 2022).)
